To fix the notation:
B1: Nucleolar RNA helicase 2 (Homo sapiens), Q9NR30 (parent)
chain: MPGKLRSDAGLESDTAMKKGETLRKQTEEKEKKEKPKSDKTEEIAEEEETVFPKAKQVKKKAEPSEVDMNSPKSKKAKKKEEPSQNDISPKTKSLRKKKEPIEKKVVSSKTKKVTKNEEPSEEEIDAPKPKKMKKEKEMNGETREKSPKLKNGFPHPEPDCNPSEAASEESNSEIEQEIPVEQKEGAFSNFPISEETIKLLKGRGVTFLFPIQAKTFHHVYSGKDLIAQARTGTGKTFSFAIPLIEKLHGELQDRKRGRAPQVLVLAPTRELANQVSKDFSDITKKLSVACFYGGTPYGGQFERMRNGIDILVGTPGRIKDHIQNGKLDLTKLKHVVLDEVDQMLDMGFADQVEEILSVAYKKDSEDNPQTLLFSATCPHWVFNVAKKYMKSTYEQVDLIGKKTQKTAITVEHLAIKCHWTQRAAVIGDVIRVYSGHQGRTIIFCETKKEAQELSQNSAIKQDAQSLHGDIPQKQREITLKGFRNGSFGVLVATNVAARGLDIPEVDLVIQSSPPKDVESYIHRSGRTGRAGRTGVCICFYQHKEEYQLVQVEQKAGIKFKRIGVPSATEIIKASSKDAIRLLDSVPPTAISHFKQSAEKLIEEKGAVEALAAALAHISGATSVDQRSLINSNVGFVTMILQCSIEMPNISYAWKELKEQLGEEIDSKVKGMVFLKGKLGVCFDVPTASVTEIQEKWHDSRRWQLSVATEQPELEGPREGYGGFRGQREGSRGFRGQRDGNRRFRGQREGSRGPRGQRSGGGNKSNRSQNKGQKRSFSKAFGQ

The values that follow come from IntAct's records for PubMed 35107372.

In this experiment the parent is B1. Particulars: with ncap_sars2 N.
On to S375L;A376E, for which the “effect of a mutation on the interaction” value was “with no effect”.
With D339H;E340G, the “effect of a mutation on the interaction” value was “with no effect”.
